Results reported in publication PMC7135998.

Target: α-tubulin of purified porcine brain tubulin (porcine) (UniProt P02550)
UniProt P02550, sequence (P02550 whole entry): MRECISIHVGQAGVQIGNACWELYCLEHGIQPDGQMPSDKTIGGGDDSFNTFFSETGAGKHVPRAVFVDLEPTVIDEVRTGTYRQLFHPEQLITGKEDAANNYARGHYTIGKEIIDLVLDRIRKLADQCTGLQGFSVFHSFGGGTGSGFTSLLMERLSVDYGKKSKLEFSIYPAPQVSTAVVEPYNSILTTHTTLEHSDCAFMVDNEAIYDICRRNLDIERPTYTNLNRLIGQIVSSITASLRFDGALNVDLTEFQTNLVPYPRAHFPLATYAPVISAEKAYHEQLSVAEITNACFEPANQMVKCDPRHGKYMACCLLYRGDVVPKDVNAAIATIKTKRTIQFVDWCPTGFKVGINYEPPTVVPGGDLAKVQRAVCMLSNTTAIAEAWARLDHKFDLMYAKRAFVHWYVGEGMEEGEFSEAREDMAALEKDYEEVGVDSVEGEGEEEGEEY

LSF present in purified porcine brain tubulin preparations (natural protein)
methylation of purified tubulin by GST-SET8 ([3H]AdoMet, autoradiogram) with increasing concentrations of the LSF inhibitor FQI1, up to 100 μM: 3 fold
